Biological target: T1, EPO receptor (EPOR) on TF-1 cells (human, UniProt P19235 25-508)
T1 sequence (looked up): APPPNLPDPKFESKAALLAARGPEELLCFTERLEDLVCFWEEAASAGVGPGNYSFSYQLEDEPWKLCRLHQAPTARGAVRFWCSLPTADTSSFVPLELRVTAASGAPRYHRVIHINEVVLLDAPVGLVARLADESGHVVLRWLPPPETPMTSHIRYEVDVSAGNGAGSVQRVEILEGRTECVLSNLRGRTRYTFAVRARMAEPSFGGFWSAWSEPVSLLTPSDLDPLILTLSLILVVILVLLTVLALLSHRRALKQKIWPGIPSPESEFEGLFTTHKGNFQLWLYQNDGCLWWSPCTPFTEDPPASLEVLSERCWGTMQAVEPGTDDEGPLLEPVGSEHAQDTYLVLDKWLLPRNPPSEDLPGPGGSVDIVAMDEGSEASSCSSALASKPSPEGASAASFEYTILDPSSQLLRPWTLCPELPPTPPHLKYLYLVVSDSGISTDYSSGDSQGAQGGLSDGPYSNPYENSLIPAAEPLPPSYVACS
Experiment: cell-based or functional assay

## Darbepoetin (Aranesp), hyperglycosylated EPO (ligand)
  EC50 relative to epoetin alfa, TF-1 cell proliferation: 14.2 fold
